Target: human IL-1R3 on cells (SK-MEL-30, A549, HEK-293 and other human cell lines) (human) (UniProt Q9NPH3)
Assay: flow cytometry on SK-MEL-30 cells (high IL-1R3 expression), 1:2 dilution series from 20 µg/ml

Chain of human IL-1R3 on cells (SK-MEL-30, A549, HEK-293 and other human cell lines) (human) (Q9NPH3 21-570): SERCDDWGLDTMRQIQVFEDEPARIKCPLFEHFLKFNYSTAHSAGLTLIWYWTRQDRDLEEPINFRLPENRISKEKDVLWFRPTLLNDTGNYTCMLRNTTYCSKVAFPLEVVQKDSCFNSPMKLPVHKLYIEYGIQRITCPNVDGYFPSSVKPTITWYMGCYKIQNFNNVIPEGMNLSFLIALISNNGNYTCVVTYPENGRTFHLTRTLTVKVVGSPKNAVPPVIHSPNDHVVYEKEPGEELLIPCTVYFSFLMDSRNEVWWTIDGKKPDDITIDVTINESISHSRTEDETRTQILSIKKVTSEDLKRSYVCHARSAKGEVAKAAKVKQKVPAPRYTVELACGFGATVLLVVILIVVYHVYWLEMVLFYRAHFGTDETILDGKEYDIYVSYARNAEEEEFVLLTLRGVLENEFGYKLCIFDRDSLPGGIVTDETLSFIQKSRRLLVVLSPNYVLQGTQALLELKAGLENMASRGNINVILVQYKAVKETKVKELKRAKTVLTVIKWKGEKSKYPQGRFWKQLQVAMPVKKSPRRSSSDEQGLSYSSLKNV

- EC50: 0.307 µg/mL
B1: MAB-16-0030 (humanized anti-IL-1R3 IgG1-LALA antibody) (antibody, from another filing, V domains shown)
VH: EVQLEESGGRLVQPGTSLRLSCAVSGFSLSSYDMSWVRQAPGKGLEWVSTIYIGGTTAYASWPKGRFTISKTNSKNTLYLQMNSLRAEDTAVYFCARLQGANYYNSLALWGQGTLVTVSS
VL: DVQMTQSPSSLSASVGDRVTITCQASQSIYSFLSWYQQKPGQAPKLLIYAASDLESGVPSRFSGSGSGTDFTLTISSLQPEDFATYYCQCNYIIDYGAFGQGTKVVIKR
